Reference: PMC3861664 (The Journal of Biological Chemistry, 2013)
Residue numbers refer to the chain shown, from its start. Numbers in names are those of the source.

T1: glucagon receptor extracellular domain with the naturally occurring G40S mutation (recombinant, soluble) (human)
T1 chain: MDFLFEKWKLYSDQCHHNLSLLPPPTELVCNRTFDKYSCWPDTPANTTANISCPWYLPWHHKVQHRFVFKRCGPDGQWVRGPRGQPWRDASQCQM

T2: glucagon receptor extracellular domain, wild type (recombinant, soluble) (Homo sapiens)
T2 construct: glucagon receptor (GCGR), human, extracellular domain; A biotinylated form was used for phage selections; also called GCGR ECD; WT ECD
T2 chain: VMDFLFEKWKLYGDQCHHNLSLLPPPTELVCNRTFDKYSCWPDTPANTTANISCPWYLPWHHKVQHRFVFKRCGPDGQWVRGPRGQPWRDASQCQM

B1: mAb7.v35, humanized mAb7 with S54T/N97G (IgG) (antibody, V domains shown)
VH: EVQLVESGPGLVKPSETLSLSCTVSGDSITSGFWNWIRQPPGKGLEWIGYIGFTGSTYYNPSLKSRVTISRDTSKNQYSLKLSSVTAADTAVYYCASVDGSAALDYWGQGTLVTVSS
VL: DIVMTQTPLSLPVTPGQPASISCRSSQSLVHSNGNTYLHWYLQKPGQSPQLLIYKVSNRFSGVPDRFSGSGSGTDFTLKISRVEAEDVGVYYCSQSTHVPWTFGQGTKVEIK
notes: mAb7.v1 heavy chain with S54T (CDR H2) and N97G (CDR H3); that is the heavy chain of m13 (PDB 4LEX) with S28T put back and N97G added; as the light chain of m13 (PDB 4LEX); IgG; The methods say that mutations found in the humanised background were also introduced into murine mAb7 clones; source: recombinant antibody
B2: mAb7.v19, humanized mAb7 with N97G (IgG) (antibody, V domains shown)
VH: B1 VH with T54S
VL: B1 VL
notes: mAb7.v1 heavy chain with N97G (CDR H3); that is the heavy chain of m13 (PDB 4LEX) with S28T and S54T put back and N97G added; as the light chain of m13 (PDB 4LEX); IgG; also called N97G containing antibody; source: recombinant antibody
B3: mAb7.v1, humanized version of mAb7 (IgG) (antibody, V domains shown)
VH: B1 VH with T54S, G100N
VL: B1 VL
notes: as the light chain of m13 (PDB 4LEX); IgG; source: recombinant antibody
B4: mAb7.v11, humanized mAb7 with S54T (IgG) (antibody, V domains shown)
VH: B1 VH with G100N
VL: B1 VL
notes: mAb7.v1 heavy chain with S54T (CDR H2); that is the heavy chain of m13 (PDB 4LEX) with S28T put back; as the light chain of m13 (PDB 4LEX); IgG; also called S54T alone; source: recombinant antibody
B5: mAb1, inhibitory anti-GCGR monoclonal antibody (antibody, V domains shown)
VH: QVQLVESGGGVVQPGRSLRLSCAASGFTFSSYGMHWVRQAPGKGLEWVAVMWYDGSNKDYVDSVKGRFTISRDNSKNTLYLQMNRLRAEDTAVYYCAREKDHYDILTGYNYYYGLDVWGQGTTVTVSS
VL: DIQMTQSPSSLSASVGDRVTITCRASQGIRNDLGWYQQKPGKAPKRLIYAASSLESGVPSRFSGSGSGTEFTLTISSVQPEDFVTYYCLQHNSNPLTFGGGTKVEIK
notes: as the heavy chain of the mAb1 Fab in PDB 4LF3 and 4ERS; as the light chain of the mAb1 Fab in PDB 4LF3 and 4ERS; also called anti-GCGR mAb1

Biological target: T1, glucagon receptor extracellular domain …
Test: AlphaScreen competition with WT ECD
Details: not given

| IC50 [µM] | Binder |
| --- | --- |
| 0.021 | B1 |
| 0.087 | B2 |

Biological target: T2, glucagon receptor extracellular domain, …
Test: AlphaScreen or HTRF; competition: soluble WT or G40S GCGR ECD against WT GCGR ECD on donor beads for binding to mAb7, its variants (IgG) or mAb1 on acceptor beads
Details: both partners purified

| binding result | Binder |
| --- | --- |
| binds | B1 |
| binds | B3 |
| binds | B4 |
| binds | B2 |
| binds | B5 |
